# Target: gbrap_human GABARAP (UniProt O95166)
# Sequence (O95166 whole entry): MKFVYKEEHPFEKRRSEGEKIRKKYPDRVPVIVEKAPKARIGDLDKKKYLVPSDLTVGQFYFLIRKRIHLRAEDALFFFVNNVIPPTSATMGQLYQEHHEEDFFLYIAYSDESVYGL
row,Substance,effect of a mutation on the interaction
1,"Pericentriolar material 1 protein (Homo sapiens), Q15154 K1972I",with no effect
2,"Pericentriolar material 1 protein (Homo sapiens), Q15154 K1972Q",with no effect
3,"Pericentriolar material 1 protein (Homo sapiens), Q15154 K1972Y",with no effect
4,"Pericentriolar material 1 protein (Homo sapiens), Q15154 L1969G",with no effect
5,"Pericentriolar material 1 protein (Homo sapiens), Q15154 L1969K",with no effect
6,"Pericentriolar material 1 protein (Homo sapiens), Q15154 L1969M",with no effect
7,"Pericentriolar material 1 protein (Homo sapiens), Q15154 L1969P",with no effect
8,"Pericentriolar material 1 protein (Homo sapiens), Q15154 L1969Q",with no effect
9,"Pericentriolar material 1 protein (Homo sapiens), Q15154 L1969T",disrupting interaction strength
10,"Pericentriolar material 1 protein (Homo sapiens), Q15154 L1969Y",with no effect
11,"Pericentriolar material 1 protein (Homo sapiens), Q15154 L1971C",with no effect
12,"Pericentriolar material 1 protein (Homo sapiens), Q15154 L1971D",with no effect
13,"Pericentriolar material 1 protein (Homo sapiens), Q15154 L1971G",with no effect
14,"Pericentriolar material 1 protein (Homo sapiens), Q15154 L1971H",with no effect
15,"Pericentriolar material 1 protein (Homo sapiens), Q15154 L1971K",with no effect
16,"Pericentriolar material 1 protein (Homo sapiens), Q15154 L1971M",with no effect
17,"Pericentriolar material 1 protein (Homo sapiens), Q15154 L1971P",with no effect
18,"Pericentriolar material 1 protein (Homo sapiens), Q15154 L1971T",with no effect
19,"Pericentriolar material 1 protein (Homo sapiens), Q15154 L1971W",with no effect
20,"Pericentriolar material 1 protein (Homo sapiens), Q15154 L1973C",with no effect
21,"Pericentriolar material 1 protein (Homo sapiens), Q15154 L1973D",with no effect
22,"Pericentriolar material 1 protein (Homo sapiens), Q15154 L1973F",with no effect
23,"Pericentriolar material 1 protein (Homo sapiens), Q15154 L1973I",with no effect
24,"Pericentriolar material 1 protein (Homo sapiens), Q15154 L1973K",with no effect
25,"Pericentriolar material 1 protein (Homo sapiens), Q15154 L1973R",with no effect
26,"Pericentriolar material 1 protein (Homo sapiens), Q15154 L1973T",with no effect
27,"Pericentriolar material 1 protein (Homo sapiens), Q15154 L1973V",with no effect
28,"Pericentriolar material 1 protein (Homo sapiens), Q15154 L1973W",with no effect
29,"Pericentriolar material 1 protein (Homo sapiens), Q15154 N1953C",with no effect

# Further lines, results first:
row,effect of a mutation on the interaction,Substance
1,with no effect,"Pericentriolar material 1 protein (Homo sapiens), Q15154 K1972L"
2,with no effect,"Pericentriolar material 1 protein (Homo sapiens), Q15154 K1972M"
3,with no effect,"Pericentriolar material 1 protein (Homo sapiens), Q15154 K1972N"
4,with no effect,"Pericentriolar material 1 protein (Homo sapiens), Q15154 K1972P"
5,with no effect,"Pericentriolar material 1 protein (Homo sapiens), Q15154 K1972R"
6,with no effect,"Pericentriolar material 1 protein (Homo sapiens), Q15154 K1972S"
7,with no effect,"Pericentriolar material 1 protein (Homo sapiens), Q15154 K1972T"
8,with no effect,"Pericentriolar material 1 protein (Homo sapiens), Q15154 K1972V"
9,with no effect,"Pericentriolar material 1 protein (Homo sapiens), Q15154 K1972W"
10,with no effect,"Pericentriolar material 1 protein (Homo sapiens), Q15154 L1969A"
11,with no effect,"Pericentriolar material 1 protein (Homo sapiens), Q15154 L1969C"
12,with no effect,"Pericentriolar material 1 protein (Homo sapiens), Q15154 L1969D"
13,with no effect,"Pericentriolar material 1 protein (Homo sapiens), Q15154 L1969E"
14,with no effect,"Pericentriolar material 1 protein (Homo sapiens), Q15154 L1969F"
15,with no effect,"Pericentriolar material 1 protein (Homo sapiens), Q15154 L1969H"
16,with no effect,"Pericentriolar material 1 protein (Homo sapiens), Q15154 L1969I"
17,with no effect,"Pericentriolar material 1 protein (Homo sapiens), Q15154 L1969N"
18,with no effect,"Pericentriolar material 1 protein (Homo sapiens), Q15154 L1969R"
19,with no effect,"Pericentriolar material 1 protein (Homo sapiens), Q15154 L1969S"
20,with no effect,"Pericentriolar material 1 protein (Homo sapiens), Q15154 L1969V"
21,with no effect,"Pericentriolar material 1 protein (Homo sapiens), Q15154 L1969W"

row,effect of a mutation on the interaction,Substance
1,with no effect,"Pericentriolar material 1 protein (Homo sapiens), Q15154 L1971A"
2,with no effect,"Pericentriolar material 1 protein (Homo sapiens), Q15154 L1971E"
3,with no effect,"Pericentriolar material 1 protein (Homo sapiens), Q15154 L1971F"
4,with no effect,"Pericentriolar material 1 protein (Homo sapiens), Q15154 L1971I"
5,with no effect,"Pericentriolar material 1 protein (Homo sapiens), Q15154 L1971N"
6,with no effect,"Pericentriolar material 1 protein (Homo sapiens), Q15154 L1971Q"
7,with no effect,"Pericentriolar material 1 protein (Homo sapiens), Q15154 L1971R"
8,with no effect,"Pericentriolar material 1 protein (Homo sapiens), Q15154 L1971S"
9,with no effect,"Pericentriolar material 1 protein (Homo sapiens), Q15154 L1971V"
10,with no effect,"Pericentriolar material 1 protein (Homo sapiens), Q15154 L1971Y"
11,with no effect,"Pericentriolar material 1 protein (Homo sapiens), Q15154 L1973A"
12,with no effect,"Pericentriolar material 1 protein (Homo sapiens), Q15154 L1973E"
13,with no effect,"Pericentriolar material 1 protein (Homo sapiens), Q15154 L1973G"
14,with no effect,"Pericentriolar material 1 protein (Homo sapiens), Q15154 L1973H"
15,with no effect,"Pericentriolar material 1 protein (Homo sapiens), Q15154 L1973M"
16,with no effect,"Pericentriolar material 1 protein (Homo sapiens), Q15154 L1973N"
17,with no effect,"Pericentriolar material 1 protein (Homo sapiens), Q15154 L1973P"
18,with no effect,"Pericentriolar material 1 protein (Homo sapiens), Q15154 L1973Q"
19,with no effect,"Pericentriolar material 1 protein (Homo sapiens), Q15154 L1973S"
20,with no effect,"Pericentriolar material 1 protein (Homo sapiens), Q15154 L1973Y"
21,with no effect,"Pericentriolar material 1 protein (Homo sapiens), Q15154 N1953A"

# From IntAct's records for PubMed 28712572
